The text below walks through data of FireProtDB (doi:10.1016/j.jmb.2005.07.042).

The conditions of the data set: Escherichia coli (strain K12), pH 7.4, Thermal, DSC, Pipes 50 mM, reversible: yes (80%), whole UniProt chain shown.

“And” between values parts separate entries of the source, which are not always exact repeats. Equal entries are not always repeated.

B1: Guanylate kinase wild type, P60546 (protein)
chain: MAQGTLYIVSAPSGAGKSSLIQALLKTQPLYDTQVSVSHTTRQPRPGEVHGEHYFFVNHDEFKEMISRDAFLEHAEVFGNYYGTSREAIEQVLATGVDVFLDIDWQGAQQIRQKMPHARSIFILPPSKIELDRRLRGRGQDSEEVIAKRMAQAVAEMSHYAEYDYLIVNDDFDTALTDLKTIIRAERLRMSRQKQRHDALISKLLAD
Regarding B1, the “unfolding enthalpy (calorimetric)” value is 36.8 kcal/mol and 70.3 kcal/mol (NaCl 250 mM, transition: 3); 38.9 kcal/mol and 67.5 kcal/mol (transition: 3); 27.3 kcal/mol and 47.8 kcal/mol and 30.8 kcal/mol (transition: 4).
